Assays:
HLA-A*26:01 [1] = assay: IEDB peptide-MHC binding, purified MHC/direct/fluorescence; filed as Kd, often an IC50 or EC50 that approximates it; ≥ and ≤ were set here for values at or beyond the usual limits of such assays
HLA-B*51:01 [2] = assay: as above
HLA-A*69:01 = assay: as above
HLA-A*29:02 = assay: as above
HLA-B*27:03 [3] = assay: as above
HLA-A*02:19 = assay: as above
HLA-B*46:01 = assay: as above
HLA-B*15:01 = assay: as above
HLA-A*02:03 = assay: as above
HLA-A*68:02 = assay: as above
HLA-A*24:03 = assay: as above
HLA-A*02:11 = assay: as above
HLA-A*03:01 = assay: as above
HLA-A*02:16 = assay: as above
HLA-B*57:01 = assay: as above
HLA-A*23:01 = assay: as above
HLA-A*02:12 = assay: as above
HLA-B*15:17 [4] = assay: as above
HLA-A*02:01 = assay: as above
HLA-B*18:01 = assay: as above
HLA-B*39:01 [5] = assay: as above; conditions: source organism: Vibrio cholerae O395
HLA-B*07:02 = assay: as above; conditions: source organism: Orthohantavirus andesense
HLA-B*40:01 = assay: as above; conditions: source organism: Orthohantavirus andesense
HLA-B*27:05 = assay: as above; conditions: source organism: Orthohantavirus andesense
HLA-B*58:01 = assay: as above; conditions: source organism: Orthohantavirus andesense
HLA-B*08:01 = assay: as above; conditions: source organism: Orthohantavirus andesense
HLA-A*31:01 = assay: as above; conditions: source organism: Orthohantavirus andesense
HLA-B*48:01 = assay: as above; conditions: source organism: Orthohantavirus andesense
HLA-A*11:01 = assay: as above; conditions: source organism: Orthohantavirus andesense
HLA-A*01:01 = assay: as above; conditions: source organism: Orthohantavirus andesense
HLA-B*44:02 = assay: as above; conditions: source organism: Orthohantavirus andesense
HLA-A*26:01 [6] = assay: IEDB peptide-MHC binding, purified MHC/competitive/fluorescence; filed as Kd, often an IC50 or EC50 that approximates it; ≥ and ≤ were set here for values at or beyond the usual limits of such assays; conditions: source organism: Lechiguanas virus
HLA-B*39:01 [7] = assay: as above; conditions: source organism: Lechiguanas virus
HLA-B*51:01 [8] = assay: as above; conditions: source organism: Lechiguanas virus
HLA-B*27:03 [9] = assay: as above; conditions: source organism: Lechiguanas virus
HLA-B*15:17 [10] = assay: as above; conditions: source organism: Lechiguanas virus
[11] = source organism: Giardia lamblia ATCC 50803
[12] = source organism: Vibrio cholerae O395
[13] = source organism: Orthohantavirus andesense
[14] = source organism: Rio Mamore hantavirus

MHDPHSIPL
Kd (HLA-A*26:01 [1]; [11]): ≥ 20 µM
Kd (HLA-B*51:01 [2]; [11]): ≥ 20 µM
Kd (HLA-A*69:01; [11]): ≥ 20 µM
Kd (HLA-A*29:02; [11]): ≥ 20 µM
Kd (HLA-B*27:03 [3]; [11]): ≥ 20 µM
Kd (HLA-A*02:19; [11]): ≥ 20 µM
Kd (HLA-B*46:01; [11]): ≥ 20 µM
Kd (HLA-B*15:01; [11]): ≥ 20 µM
Kd (HLA-A*02:03; [11]): ≥ 20 µM
Kd (HLA-A*68:02; [11]): ≥ 20 µM
Kd (HLA-A*24:03; [11]): ≥ 20 µM
Kd (HLA-A*02:11; [11]): ≥ 20 µM
Kd (HLA-A*03:01; [11]): ≥ 20 µM
Kd (HLA-A*02:16; [11]): ≥ 20 µM
Kd (HLA-B*57:01; [11]): ≥ 20 µM
Kd (HLA-A*23:01; [11]): ≥ 20 µM
Kd (HLA-A*02:12; [11]): ≥ 20 µM
Kd (HLA-B*15:17 [4]; [11]): ≥ 20 µM
Kd (HLA-A*02:01; [11]): ≥ 20 µM
Kd (HLA-B*18:01; [11]): ≥ 20 µM

VVSEIDLQW
Kd (HLA-A*26:01 [1]; [12]): ≥ 20 µM
Kd (HLA-B*39:01 [5]): ≥ 20 µM
Kd (HLA-B*51:01 [2]; [12]): ≥ 20 µM
Kd (HLA-A*69:01; [12]): ≥ 20 µM
Kd (HLA-A*29:02; [12]): ≥ 20 µM
Kd (HLA-B*27:03 [3]; [12]): ≥ 20 µM
Kd (HLA-A*02:19; [12]): ≥ 20 µM
Kd (HLA-B*46:01; [12]): ≥ 20 µM
Kd (HLA-B*15:01; [12]): ≥ 20 µM
Kd (HLA-A*02:03; [12]): ≥ 20 µM
Kd (HLA-A*68:02; [12]): ≥ 20 µM
Kd (HLA-A*24:03; [12]): ≥ 20 µM
Kd (HLA-A*02:11; [12]): ≥ 20 µM
Kd (HLA-A*03:01; [12]): ≥ 20 µM
Kd (HLA-A*02:16; [12]): ≥ 20 µM
Kd (HLA-B*57:01; [12]): ≥ 20 µM
Kd (HLA-A*23:01; [12]): ≥ 20 µM
Kd (HLA-A*02:12; [12]): ≥ 20 µM
Kd (HLA-B*15:17 [4]; [12]): 0.002 µM
Kd (HLA-A*02:01; [12]): ≥ 20 µM
Kd (HLA-B*18:01; [12]): ≥ 20 µM

YRRKLTNPA
Kd (HLA-B*07:02): ≥ 20 µM
Kd (HLA-B*40:01): ≥ 20 µM
Kd (HLA-A*69:01; [13]): ≥ 20 µM
Kd (HLA-A*29:02; [13]): ≥ 20 µM
Kd (HLA-B*46:01; [13]): ≥ 20 µM
Kd (HLA-B*15:01; [13]): ≥ 20 µM
Kd (HLA-B*27:05): ≥ 20 µM
Kd (HLA-B*58:01): ≥ 20 µM
Kd (HLA-B*08:01): 1.12 µM
Kd (HLA-A*31:01): ≥ 20 µM
Kd (HLA-B*48:01): ≥ 20 µM
Kd (HLA-A*11:01): ≥ 20 µM
Kd (HLA-A*68:02; [14]): ≥ 20 µM
Kd (HLA-A*01:01): ≥ 20 µM
Kd (HLA-A*24:03; [14]): ≥ 20 µM
Kd (HLA-A*03:01; [13]): ≥ 20 µM
Kd (HLA-B*57:01; [13]): ≥ 20 µM
Kd (HLA-A*23:01; [14]): ≥ 20 µM
Kd (HLA-A*02:12; [14]): ≥ 20 µM
Kd (HLA-A*02:01; [13]): ≥ 20 µM
Kd (HLA-B*18:01; [13]): ≥ 20 µM
Kd (HLA-B*44:02): ≥ 20 µM
Kd (HLA-A*26:01 [6]): ≥ 20 µM
Kd (HLA-B*39:01 [7]): ≥ 20 µM
Kd (HLA-B*51:01 [8]): ≥ 20 µM
Kd (HLA-B*27:03 [9]): ≥ 20 µM
Kd (HLA-B*15:17 [10]): ≥ 20 µM

Source: the Immune Epitope Database (IEDB)
